In article PMC5828407 (2018) one finds response data, which are given here for 11 variants.

To fix the notation:
B1: peptide F4ab 148–160 [modified: FITC-Ahx on the N-terminus; FITC-Ahx on the N-terminus] [Escherichia coli] / porcine aminopeptidase N (APN), His-tagged whole protein [porcine] (parent complex)
chain 1: NASYAGVFGKGGV
chain 2: MAKGFYISKALGILGILLGVAAVATIIALSVVYAQEKNKNAEHVPQAPTSPTITTTAAITLDQSKPWNRYRLPTTLLPDSYNVTLRPYLTPNADGLYIFKGKSIVRLLCQEPTDVIIIHSKKLNYTTQGHMVVLRGVGDSQVPEIDRTELVELTEYLVVHLKGSLQPGHMYEMESEFQGELADDLAGFYRSEYMEGNVKKVLATTQMQSTDARKSFPCFDEPAMKATFNITLIHPNNLTALSNMPPKGSSTPLAEDPNWSVTEFETTPVMSTYLLAYIVSEFQSVNETAQNGVLIRIWARPNAIAEGHGMYALNVTGPILNFFANHYNTSYPLPKSDQIALPDFNAGAMENWGLVTYRENALLFDPQSSSISNKERVVTVIAHELAHQWFGNLVTLAWWNDLWLNEGFASYVEYLGADHAEPTWNLKDLIVPGDVYRVMAVDALASSHPLTTPAEEVNTPAQISEMFDSISYSKGASVIRMLSNFLTEDLFKEGLASYLHAFAYQNTTYLDLWEHLQKAVDAQTSIRLPDTVRAIMDRWTLQMGFPVITVDTKTGNISQKHFLLDSESNVTRSSAFDYLWIVPISSIKNGVMQDHYWLRDVSQAQNDLFKTASDDWVLLNVNVTGYFQVNYDEDNWRMIQHQLQTNLSVIPVINRAQVIYDSFNLATAHMVPVTLALDNTLFLNGEKEYMPWQAALSSLSYFSLMFDRSEVYGPMKKYLRKQVEPLFQHFETLTKNWTERPENLMDQYSEINAISTACSNGLPQCENLAKTLFDQWMSDPENNPIHPNLRSTIYCNAIAQGGQDQWDFAWGQLQQAQLVNEADKLRSALACSNEVWLLNRYLGYTLNPDLIRKQDATSTINSIASNVIGQPLAWDFVQSNWKKLFQDYGGGSFSFSNLIQGVTRRFSSEFELQQLEQFKKNNMDVGFGSGTRALEQALEKTKANIKWVKENKEVVLNWFIEHS
B2: peptide F4ad 200–218 [modified: FITC-Ahx on the N-terminus; FITC-Ahx on the N-terminus] [Escherichia coli] / porcine aminopeptidase N (APN), His-tagged whole protein [porcine] (parent complex)
chain 1: ARTELFGSLSKNDILGQIQ
chain 2: B1 chain 2
B3: peptide F4ac 200–218 [modified: FITC-Ahx on the N-terminus; FITC-Ahx on the N-terminus] [Escherichia coli] / porcine aminopeptidase N (APN), His-tagged whole protein [porcine] (parent complex)
chain 1: TKLFGSLSRNDILGQIQRV
chain 2: B1 chain 2

One assay covers variants of B1. In words: ELISA; parent: 30; read off a plot. In general terms: ELISA stands for enzyme-linked immunosorbent assay.
On to chain 1 G12A, for which the response was ~28 relative value APN/PBS at 450 nm.

Variants of B2 are the subject of another assay. In words: ELISA; parent: 55; read off a plot.
With chain 1 A1E, the response was ~53 relative value APN/PBS at 450 nm.

Another assay covers variants of B3. In words: ELISA; parent: 29; read off a plot.
As to chain 1 G5A, the response is ~20 relative value APN/PBS at 450 nm.
Still for that read-out and setting: as for chain 1 L3A, the figure is ~73 relative value APN/PBS at 450 nm.
On the same count and under the same terms, as for chain 1 S8A, the figure is ~27 relative value APN/PBS at 450 nm; as for chain 1 K2A, ~48 relative value APN/PBS at 450 nm; as for chain 1 L13A, ~13 relative value APN/PBS at 450 nm.
chain 1 G14A: the response is ~6.5 relative value APN/PBS at 450 nm.
On the same count and under the same terms, next, chain 1 L7A: ~6.5 relative value APN/PBS at 450 nm.
Regarding chain 1 N10A, the response is ~15 relative value APN/PBS at 450 nm.
Same read-out and setting: next, chain 1 R18A: ~6.5 relative value APN/PBS at 450 nm.
